Data published in patent publication US20190119407A1 (Amgen, published 2019).

T1: human TL1A (human, UniProt O95150 72-251, limits assumed)
T1 construct: also called huTL1A; TNFSF15
T1 sequence (looked up): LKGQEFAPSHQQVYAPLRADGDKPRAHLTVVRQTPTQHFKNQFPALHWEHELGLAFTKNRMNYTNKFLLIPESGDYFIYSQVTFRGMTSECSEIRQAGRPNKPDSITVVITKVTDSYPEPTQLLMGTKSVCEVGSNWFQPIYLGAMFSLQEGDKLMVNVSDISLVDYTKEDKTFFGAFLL


target: T1, human TL1A; assay: hybridoma screening after immunisation with recombinant human TL1A soluble protein; member named through Tables A, C and D

Row | binding result | Binder
1 | binds | 92E5 (antibody, human IgG2, kappa, V domains shown, also called iPS 427559) VH: EVHLLESGGGLVQPGGSLRLSCAASGFTFSSYAMSWVRQVPGKGLEWVSGISGRGGSTYYADSVKGRFTISRDNSKNTLYLQMDSLRAEDTAVYNCAIEVAGAFDIWGQGTMVTVSS VL: DIQMIQSPSSLSASVGDRVTITCRASQSISHYLNWYQQKPGKAPKFLIYAASSLQSGVPSRFSGSGSGTDFTLTISSLQPEDFATYYCQQSFSSITFGQGTRLEIKR
2 | binds | 91G8 (antibody, human IgG2, kappa, V domains shown, also called iPS 427524) VH: EVQLLESGGGLVQPGGSLRLSCVASGFTFSSYAMSWVRQAPGKGLEWVSGISGSGGSRYYADSVKGRFTISRDNSKNTLYLQMNSLRAEDTAVYYCAIEVAGAFDIWGQGTMVTVSS VL: DIQMIQSPSSLSASVGDRVTITCRASQSISSYLNWYQQKPGKAPKFLIYAASSLQSGVPSRFSGSGSGTDFTLTISSLQPEDFATYYCQQSFSTITFGQGTRLEIKR
3 | binds | 89H9 (antibody, human IgG2, kappa, V domains shown, also called iPS 427509) VH: EVHLLESGGGLVQPGGSLRLSCAASGFTFSSYAMSWVRQAPGKGLEWVSGISGGGGSTYYADSVKGRFTISRDNSKNTLYLQMNSLRAENTAVYYCAIEMAGAFDIWGQGTMVTVSS VL: DIQMIQSPSSLSASVGDSVTITCRASQSISYYLNWYQQKPGKAPKFLIYAASSLQSGVPSRFSGSGSGTDFTLTISSLQPEDFATYYCQQSYSSITFGQGTRLEIKR
4 | binds | 57A8 (antibody, V domains shown, also called iPS 427519) VH: EIQLLESGGGLVQPGGSLRLSCVASGFTFSSYVMSWVRQAPGKGLEWVSVISGSGGSTYYADSVKGRFTISRDNSKTTLYLQMNSLRAEDTAVYYCAKGGTNYYYYYSGMDVWGQGTTVTVSS VL: QSVLTQPPSVSGAPGQRVTISCTGSSSNIGAGYNVHWYQQLPGTAPKLLIYGNNNRPSGVPDRFSGSKSGTSASLAITGLQTEDEADYYCQSYDSSLSGWVFGGGTKLTVL
5 | binds | 91D7 (antibody, human IgG2, kappa, V domains shown, also called iPS 427514) VH: QVQLQQWGAGLLKPSETLSLTCAVYGGSFSGYYWSWIRQPPGKGLEWIGEINPVGRTNYKPSLKSRVTISVDTSKNQFSLKLSSVTAADTALYYCARDNGWHYAFDIWGQGTMVTVSS VL: DIQMTQSPSSLSASVGDRVTITCRASQNISSYLNWYQQRPGKAPNLLLFTASSLQSGVPSRFSGSGSGTDFTLTINSLQPEDFATYYCQQSYSNPPESSFGQGTKLEIKR
6 | binds | 87H11 (antibody, human IgG2, kappa, V domains shown, also called iPS 427534) VH: QEQLQQWGAGLLKPSETLSLTCAVYGGSFSGYYWSWIRQPPGKGLEWIGEINHSGRTNYNPSLKSRVTISVDTSKNQFSLKLSSVTAADTAVYYCARDSGWHFSFDIWDQGTMVTVSS VL: not shown
7 | binds | 88H9 (antibody, human IgG2, kappa, V domains shown, also called iPS 427485) VH: QVQLVESGAGVVQPGRSLRLSCAASGFTFSSYGMHWVRQAPGMGLEWVAVIWFDGSNEYYADSVKGRFTISRDNSKNTLYLQMNSLRAEDTAVYYCARERWFGELLDYWGQGTLVTVSS VL: DIQMTQSPSSLSASVGDRVTITCRASQGIRNDLGWYQEKPGKAPKRLIYAASGLQGGDPSRFSGSGSGTEFTLTISSLQPEDFATYYCLQHNSYPTWTFGQGTKVEIKR
8 | binds | 76A4 (antibody, human IgG2, kappa, V domains shown, also called iPS 427529) VH: QVQLQQSGPGLVKPSQTLSLTCAISGDSVSSNSATWNWIRQSPSRGLEWLGRTYYRSKLYNDYAVSVKSRITINPDTSKNQFSLQLNSVTPEDTAVYYCAREVVAGPRWFDPWGQGTLVTVSS VL: DIQMTQSPSSLSASVGDRVTITCRASQSVTSYLNWYQQKPGKAPKLLIYTASSLQSGIPSRFSGSGSGTDFTLTISSLQPEDFATYFCQQSYSTPRSFGQGTKLEIKR
9 | binds | 73C2 (antibody, human IgG2, kappa, V domains shown, also called iPS 427544) VH: QVQLQQSGPGLVKPSQTLSLTCAISGDSVSSSSATWNWIRQSPSRGLEWLGRTYQRSKWNNDYAVSVKSRITINPDTSRNQFSLQLNSVTPEDTAVYYCAREVVAGPRWFDPWGQGTLVTVSS VL: DIQMTQSPSSLSASVGDRVTITCRASQSFSSYLNWYQQKPGKAPELLIYAASSLQSGVPSRFSGSGSGTDFTLTISSLQPEDFASYFCQQSYSTPRSFGQGTKLEIKR
10 | binds | 92D3 (antibody, human IgG2, kappa, V domains shown, also called iPS 427564) VH: QVQLVQSGAEVKKPGASVQVSCKASGYTFTGYYMHWIRQAPGQGLEWLGWIIPNSGGTNYAQKFQGRVTMTRDTSISTAYMELSRLRSDDTAVYYCATGSSWEGFDYWGQGTLVTVSS VL: DIQMTQSPSSLSASVGDRVTITCRASQSISSYLNWYQQKPGTAPKFLIYGASRLQSGVPSRFSGSGSGTDFTLTISSLQPEDFATYYCQQSDTTPITFGQGTRLEIKR
11 | binds | 91F10_LC2 (antibody, human IgG2, kappa, V domains shown, also called iPS 427572) VH: QGQLVQSGAEVKKPGASVKVSCQASGYTFTAYYMHWVRQAPGQGLEWMGWINPNSGGTNYAQKFRGRVTMTRDTSISTAYMELSRLRSDDTAVYYCATGGSWEGFDYWGQGTLVTVSS VL: DIQMTQSPSSLSASVGDRVTITCRASQSISSYLNWYQQKPGKAPKFLIYAASRLQSGVPSRFSGSGSGTDFTLTISSLQPEDFATYYCQQSDSTPITFGQGTRLEIKR
12 | binds | 77D12 (antibody, human IgG2, lambda, V domains shown, also called iPS 427549) VH: QVQLVQSGAEVKKPGASVRVSCKASGYTFTGFYMHWVRQAPGQGLEWMGWINPDSGGTNYAQKFQGRVTMTRDTSISTAYMELSRLRSDDTAVYYCAREGIAVALTYWGQGTLVTVSS VL: QSVLTQPPSASGTPGQRVTISCSESNSDIGTNAVNWYQQFPGTAPKFLIYSNNKRPSGVPDRFSGSKSGTSASLAISGLQSEDEADYYCATWDDNLNGPLFGGGTKLTVLG
13 | binds | 54E5 (antibody, human IgG2, kappa, V domains shown, also called iPS 427576) VH: QVQLVESGGGVVQPGRSLRLSCAASGFTFSTYGMHWVRQAPGKGLEWVAVIWYDGSNKDYADSVKGRFTVSRDNSRDTLYLQMNSLRAEDTAVYYCAREERDSYYHYGMDVWGQGTTVTVSS VL: not shown
14 | binds | 56E1 (antibody, human IgG2, kappa, V domains shown, also called iPS 427554) VH: QVQLVESGGGVVQPGRSLRLSCAASGFIFSSYGMHWVRQAPGKGLEWVAVIWYDGSNKDYADSVKGRFTVSRDNSRDTLYLQMNSLRAEDTAVYYCAREERDSYYHYGMDVWGQGTTVTVSS VL: not shown
15 | binds | 53D3 (antibody, human IgG2, kappa, V domains shown, also called iPS 427504) VH: EVQLVESGGGLVKPGGSLRLSCAASEFTFSTYYMSWVRQAPGKGLEWVSSISSSSSFIYYADSVKGRFTISRDNAKNSLYLQMNSLRAEDTAVYYCARDRIAAPGTYYYYGMDVWGQGTTVTVSS VL: not shown
16 | binds | 60G11 (antibody, human IgG2, lambda, V domains shown, also called iPS 427493) VL: QSVLTQPPSVSGAPGQRVTISCTGSGSNIGAGYDVHWYQQLPGTAPKLLIYGNSHRPSGIPDRFSGSKSGTSASLAITGLQAEDEADYYCQSYDSSLSGYVFGTGTKVTVLG V domain: EVQLLESGGGLVQPGGSLRLSCAASGFTFSNYAMNWVRQAPGKGLEWVSVISGRGGSTYYADSVKGRFTISRDNSRNTLYLQMNSLRAEDTAIYYCAKDGYSSAWFFDYWGQGTLITVSS
17 | binds | 58G5 (antibody, human IgG2, lambda, V domains shown, also called iPS 427539) VH: EVQLLESGGGLVQPGGSLRLSCAASGFTFSNYAMSWVRQAPGKGLQWVSVISGRGGSTYYADSVKGRFTISRDNSKNTLYLQMNSLRAEDTAVYYCAKDGYSSAWYFDYWGQGTLVTVSS VL: QSVLTQPPSVSGAPGQRVTISCTGSSSNIGAGYDVHWYQQLPGTAPKLLIYGNSHRPSGVPDRFSGSKSGTSASLAITGLQAEDEADYYCQSYDSSLSGYVFGTGTKVTVLG
